The source of these data is patent US20140005119A1, “COMPOSITIONS AND METHODS FOR INHIBITING THE ACTIVITY OF P110a MUTANT PROTEINS” (Case Western Reserve University, priority 2012, published 2014).

Assay [1] addresses T1, protein interaction between p110α Q546P and IRS1 in Vaco481 CRC cells (Homo sapiens, UniProt P35568).
T1 construct: endogenous in cells; host or cells: Vaco481 CRC cells
T1 sequence (P35568 1-1242): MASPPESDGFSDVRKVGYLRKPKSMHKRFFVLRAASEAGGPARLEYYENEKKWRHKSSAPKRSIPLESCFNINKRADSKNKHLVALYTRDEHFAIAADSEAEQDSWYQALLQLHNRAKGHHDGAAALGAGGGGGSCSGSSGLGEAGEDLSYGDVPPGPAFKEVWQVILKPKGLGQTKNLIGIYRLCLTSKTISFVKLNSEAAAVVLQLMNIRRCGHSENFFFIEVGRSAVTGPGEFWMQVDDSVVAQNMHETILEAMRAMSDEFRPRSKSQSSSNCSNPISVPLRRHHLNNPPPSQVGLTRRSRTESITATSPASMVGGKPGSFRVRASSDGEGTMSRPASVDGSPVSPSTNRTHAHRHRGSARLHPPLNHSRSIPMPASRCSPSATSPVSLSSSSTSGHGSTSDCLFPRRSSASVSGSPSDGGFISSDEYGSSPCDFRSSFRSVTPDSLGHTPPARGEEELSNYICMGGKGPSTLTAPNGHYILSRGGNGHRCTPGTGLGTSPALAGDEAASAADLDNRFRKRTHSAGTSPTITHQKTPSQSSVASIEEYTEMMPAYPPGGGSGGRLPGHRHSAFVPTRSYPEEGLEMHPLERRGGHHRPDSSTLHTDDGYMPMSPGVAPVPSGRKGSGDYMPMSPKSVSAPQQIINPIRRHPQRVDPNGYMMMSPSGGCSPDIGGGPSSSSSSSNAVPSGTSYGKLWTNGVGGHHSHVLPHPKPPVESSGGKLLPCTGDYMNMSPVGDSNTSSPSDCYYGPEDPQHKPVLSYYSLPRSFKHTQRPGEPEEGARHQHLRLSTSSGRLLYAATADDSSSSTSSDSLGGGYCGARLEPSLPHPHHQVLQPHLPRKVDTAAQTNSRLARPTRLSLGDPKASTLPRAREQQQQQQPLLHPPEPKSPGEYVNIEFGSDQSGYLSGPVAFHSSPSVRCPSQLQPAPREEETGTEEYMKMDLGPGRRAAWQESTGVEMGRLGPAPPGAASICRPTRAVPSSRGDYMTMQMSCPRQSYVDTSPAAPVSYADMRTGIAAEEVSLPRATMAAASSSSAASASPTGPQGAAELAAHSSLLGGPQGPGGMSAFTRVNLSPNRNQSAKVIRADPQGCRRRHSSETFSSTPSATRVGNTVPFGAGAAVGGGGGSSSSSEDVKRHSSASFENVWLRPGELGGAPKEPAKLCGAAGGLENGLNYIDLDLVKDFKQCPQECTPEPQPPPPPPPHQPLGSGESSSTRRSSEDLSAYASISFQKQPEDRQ
Description: Co-IP (anti-p110α) from Vaco481 CRC cells treated with stapled mutant peptide. The format is cell-based. On the procedure:
(§1) FIG. 4(A-F) illustrate: (A) Schematic diagram of linear and stapled WT and mutant peptides derived from p110α (SEQ ID NOs: 5, 6, 7 and 8). (B) Immunoblots of cell lysates immunoprecipitated with beads conjugated with anti-FLAG antibodies and then blotted with the indicated antibodies. Linear or stapled WT and mutant peptide were added into culture medium of the p110α E545K 3×FLAG KI cells for 16 hr. (C) Immunoblots of cell lysates immunoprecipitated with anti-p110α antibodies and then blotted with the indicated antibodies. Vaco481 CRC cells were treated with the stapled mutant peptides at the indicated concentration. (D) Immunoblots of cell lysates blotted with the indicated antibodies. The indicated cell lines were treated with the stapled mutant peptide. (E) Immunoblots of cell lysates blotted with the indicated antibodies. […]
(§2) For Co-immunoprecipitation (Co-IP), cells were harvested, washed with PBS, and then lysed in IP buffer (50 mMTris [pH 7.4], 150 mMNaCl, 5 mMEDTA [pH 8.0], 0.5% NP40, 1 mM PMSF, complete Protease Inhibitor Cocktail tablet [Roche]; supplemented with phosphatase inhibitors [1 mM Na3VO4, 20 mM NaF, 0.1 mM b-glycerophosphate, 20 mM sodium pyrophosphate] when necessary). […] Lysates were then cleared by centrifugation (14,000 rpm, 10 min) and protein concentration in supernatants was determined with a BCA protein assay kit (Pierce, Rockford, Ill.). […]

A further assay has as its system p85 and IRS1. Description: Immunoblot of treated cell lines, p85 and IRS1 levels. The class given is cell-based, human. On the procedure: as §1, §2
In assay [2] the target is T2, interaction between IRS1 and DABD p110α E545K (Homo sapiens, UniProt P35568).
T2 construct: expressed in transfected cells
T2 sequence (P35568 1-1242): T1 sequence (P35568 1-1242)
The assay can be described thus: Co-IP from lysate of cells co-transfected with Myc-IRS1 and FLAG-tagged ΔABD p110α E545K, incubated with stapled peptide. The class given is binding. The procedure: FIGS. 3(A-M) illustrate: (A, B) Mapping peptides (P3, SEQ ID NO: 1; P4 SEQ ID NO: 2; P5, SEQ ID NO: 3; P6, SEQ ID NO: 4) derived from mutant p110α that inhibit interaction between IRS1 and p110α E545K. The indicated peptides were added into cell lysates made from the p110α E545K 3×FLAG KI cells. Cell lysates were immunoprecipitated with beads conjugated with anti-FLAG antibodies and then blotted with anti-IRS1 antibodies. (C) Immunoblots of cell lysates made from the p110α E545K 3×FLAG KI cells. Cell lysates were immunoprecipitated with beads conjugated with anti-FLAG antibodies and then blotted with the indicated antibodies. […] (J, K) Immunoblot and graph of purified recombinant p110α E545K mutant proteins mixed with the indicated components and quantified using an in vitro lipid kinase assay. […]
as §2

“H2N-SEITKQEK-D^549-FLW-S^553-HRHYC-COOH [stapled mutant peptide]”: the “disruption of protein interaction between p110α Q546P and IRS1” value in assay [1] is on record as “disrupted”. Besides, the “levels of p85 and IRS1” value with p85 and IRS1 was “did not affect”. In addition, the “inhibition of the interaction between IRS1 and DABD p110α E545K” value in assay [2] is reported as “inhibited”.
